Measured values taken from paper PMC9391581, “Mutated KLF4(K409Q) in meningioma binds STRs and activates FGF3 gene expression”.

Experiments:
Conditions in all cases: protein: recombinant; tags: MBP; label: 32P 5' end
[1] = target: T1, MBP-KLF4 full length (human, UniProt O43474-1 1-479); experiment: EMSA; EMSA: 10 mM Tris-HCl pH 7.5, 53 mM NaCl, 1 mM DTT, 0.01% NP40, 5% glycerol, protein inhibitors, RT 30 min; footprinting: 110 ng to 3 ug protein, RT 30 min, 0.3
[2] = target: T2, MBP-KLF4 DBD (human, UniProt O43474-1 375-479); experiment: as above
[3] = target: T3, MBP-KLF4 K409Q full length (human, UniProt O43474-1 1-479, K409Q); experiment: as above
[4] = target: T3, MBP-KLF4 K409Q full length; experiment: EMSA; stronger than FGF3-201; EMSA: 10 mM Tris-HCl pH 7.5, 53 mM NaCl, 1 mM DTT, 0.01% NP40, 5% glycerol, protein inhibitors, RT 30 min; footprinting: 110 ng to 3 ug protein, RT 30 min, 0.3
[5] = target: MBP-KLF4 K409Q DBD (human, UniProt O43474-1 375-479, K409Q); experiment: as above
[6] = target: T1, MBP-KLF4 full length; experiment: EMSA; same strong binding as TRH-122; EMSA: 10 mM Tris-HCl pH 7.5, 53 mM NaCl, 1 mM DTT, 0.01% NP40, 5% glycerol, protein inhibitors, RT 30 min; footprinting: 110 ng to 3 ug protein, RT 30 min, 0.3
[7] = target: T2, MBP-KLF4 DBD; experiment: as above

T1 sequence (O43474 other isoform, or with tags, fused parts or gaps): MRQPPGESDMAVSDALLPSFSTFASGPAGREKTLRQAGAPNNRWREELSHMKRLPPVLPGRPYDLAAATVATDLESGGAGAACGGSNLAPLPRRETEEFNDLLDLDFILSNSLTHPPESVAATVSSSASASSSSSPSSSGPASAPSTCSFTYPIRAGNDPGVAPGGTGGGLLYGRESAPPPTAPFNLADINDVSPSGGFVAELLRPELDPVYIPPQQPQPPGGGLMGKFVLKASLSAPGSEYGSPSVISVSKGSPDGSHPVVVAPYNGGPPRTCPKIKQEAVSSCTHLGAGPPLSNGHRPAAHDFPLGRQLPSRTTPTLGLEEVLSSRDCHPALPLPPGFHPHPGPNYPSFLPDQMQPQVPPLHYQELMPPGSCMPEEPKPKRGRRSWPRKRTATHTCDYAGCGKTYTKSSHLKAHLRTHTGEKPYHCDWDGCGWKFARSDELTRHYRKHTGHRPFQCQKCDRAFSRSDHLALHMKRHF
T2 sequence (O43474 409-513): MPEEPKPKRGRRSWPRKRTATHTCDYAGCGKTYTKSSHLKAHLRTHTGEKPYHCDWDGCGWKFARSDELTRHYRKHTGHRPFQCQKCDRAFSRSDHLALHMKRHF
T3 sequence (O43474 other isoform, or with tags, fused parts or gaps K409Q | K409Q K409Q): as the sequence (O43474 other isoform, or with tags, fused parts or gaps) above, with K409Q counted along it
Sequence of MBP-KLF4 K409Q DBD (O43474 409-513 K443Q): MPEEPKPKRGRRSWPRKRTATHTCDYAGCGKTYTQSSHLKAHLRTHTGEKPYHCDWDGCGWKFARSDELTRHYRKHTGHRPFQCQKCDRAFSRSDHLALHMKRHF

B1: TRH-122 (dsDNA)
DNA 1: GAGCAGGCGGGCGGGGTCCCGC
DNA 2: GCGGGACCCCGCCCGCCTGCTC
[1]
  binding result: binds
[2]
  binding result: binds
[3]
  binding result: binds

B2: FGF3-201M (dsDNA)
DNA 1: CCTTTAATGGGTGTGTGTCAGC
DNA 2: GCTGACACACACCCATTAAAGG
[4]
  binding result: binds
[5]
  binding result: binds

B3: TRH-122M (dsDNA)
DNA 1: GAGCAGGCGGGCGGGGCCCCGC
DNA 2: GCGGGGCCCCGCCCGCCTGCTC
[6]
  binding result: binds
[7]
  binding result: binds
